The text below walks through data of patent US20220235132A1 (ANAPTYSBIO, published 2022).

Assay [1] has as its target T1, human PD-1 expressed on cells (human, UniProt Q15116 25-288). Briefly: cell-based or functional assay.
The target in assay [2] is T2, biotinylated cynomolgus monkey PD-1 extracellular domain monomer (cynomolgus monkey, UniProt B0LAJ3 25-170, Biotinylated; neither the site nor the method is stated, and the letters do not carry it.).
T2 construct: Captured on a streptavidin sensor chip for SPR; also called Cynomolgus PD-1 (SPR)
Briefly: SPR screening (method taken from paragraph 169), N = 2. How it is done: KD measurements for screening by Surface Plasmon Resonance (SPR) were performed on a Biacore T200 (GE Healthcare Life Sciences, Pittsburgh, Pa.), and kinetic constants were fit globally using a 1:1 binding model. Biotinylated human or cynomolgus monkey PD-1 extracellular domain monomer was captured at a 1 nM concentration on a Biacore Sensor chip SA (GE Healthcare Life Sciences, Pittsburgh, Pa.), with a carboxymethylated dextran surface pre-immobilized with streptavidin. The captured antigen level was targeted to yield a low response to prevent avidity effects on the dissociation rate. Tm measurements were determined by fluorescence-based thermal shift and differential scanning calorimetry.

Assay [3] deals with T2, biotinylated cynomolgus monkey PD-1 …. Briefly: SPR (Biacore T200), biotinylated PD-1 ECD monomer captured on SA chip.
For assay [4], the target named is T3, cynomolgus PD-1 (as used in KinExA) (cynomolgus monkey).
T3 construct: also called Cynomolgus PD-1 KD (KinExA)
Briefly: KinExA (kinetic exclusion assay).

Assay [5] deals with T4, cynomolgus monkey PD-1 expressed on cells (cynomolgus monkey, UniProt B0LAJ3 25-288).
T4 construct: also called cynomolgus PD-1; PD-1 on stably transfected HEK 293 cells
Briefly: flow cytometry, HEK 293 cells stably expressing cynomolgus monkey PD-1. How it is done: HEK 293 cells were stably transfected to express either human PD-1 or cynomolgus monkey PD-1. Cells were harvested by Accutase™ treatment (Innovative Cell Technologies, San Diego, Calif.), the cells expressing cynomolgus monkey PD-1 were treated with the lipophilic fluorescent dye Vybrant® DiD (ThermoFisher Scientific, Carlsbad, Calif.), and then mixed with an equal number of unlabeled HEK 293 cells expressing human PD-1. Cells (2×10⁵ total per sample) were stained with the indicated concentrations of each antibody for 40 min at 4° C. with gentle shaking, centrifuged and washed once. Cells were fixed in 2% paraformaldehyde in phosphate-buffered saline (PBS) for 10 min at room temperature, washed, and antibodies detected with Phycoerythrin (PE)-conjugated goat anti-human kappa (Southern Biotechnology, Birmingham, Ala.) for 15 min at 4° C. with gentle shaking. Cells were washed, resuspended, and bound antibody fluorescence quantified on a BD FACSArray™ (BD Biosciences, San Jose, Calif.). Data were analyzed for median fluorescence intensity (MFI) using FlowJo® analysis software (FlowJo, LLC). ECso values were determined in GraphPad Prism 5.0 (GraphPad Software) using a log(agonist) vs. response—Variable slope (4 parameters) curve fit. The results are shown in FIGS. 1 and 2, and the ECso values are set forth in Table 2 (human) and Table 3 (cynomolgus monkey). […]

The target in assay [6] is T1, human PD-1 expressed on cells. Briefly: flow cytometry, 2-day anti-CD3/anti-CD28 activated human CD4+ T cells. How it is done: Primary human peripheral blood CD4⁺ T cells were prepared using magnetic bead separation (CD4⁺ T Cell Isolation Kit, Miltenyi Biotec, Auburn, Calif.) of peripheral blood mononuclear cells (PBMCs) and activated for 48 hours with plastic-coated anti-CD3 and anti-CD28 in 6-well plates. Cells (1×10⁵ per sample) were washed and stained in V-bottom 96-well plates with the indicated concentrations of each antibody for 30 min at 4° C. with gentle shaking, centrifuged and washed once. Cells were fixed in 4% paraformaldehyde in PBS for 10 min at room temperature, washed, and antibodies detected with Alexa Fluor 647-conjugated F(ab′)2 goat anti-human IgG Fc (Jackson ImmunoResearch, West Grove, Pa.) for 10 min at 4° C. Cells were washed, resuspended, and bound antibody fluorescence quantified on a BD FACSArray™ (BD Biosciences, San Jose, Calif.). Data were analyzed for geometric mean fluorescence intensity (MFI) using FlowJo® analysis software (FlowJo, LLC). ECso values were determined in GraphPad Prism 7.02 (GraphPad Software) using a log(agonist) vs. response—Variable slope (4 parameters) curve fit.
In general terms: Flow cytometry measures light scatter and fluorescence of single cells or particles in a stream.

Assay [7] has as its target T5, biotinylated human PD-1 extracellular domain monomer (human, UniProt Q15116 25-170, biotinylated (site not stated)).
T5 construct: extracellular domain; Captured on a streptavidin sensor chip for SPR; also called Human PD-1 (SPR)
Briefly: SPR (Biacore T200), biotinylated PD-1 ECD monomer captured on SA chip.

Values joined by “and” are separate entries in the source; they are usually repeats but may differ in a detail not shown here. Equal values may be shown once.

T4 sequence (B0LAJ3 entry or part of it limits assumed): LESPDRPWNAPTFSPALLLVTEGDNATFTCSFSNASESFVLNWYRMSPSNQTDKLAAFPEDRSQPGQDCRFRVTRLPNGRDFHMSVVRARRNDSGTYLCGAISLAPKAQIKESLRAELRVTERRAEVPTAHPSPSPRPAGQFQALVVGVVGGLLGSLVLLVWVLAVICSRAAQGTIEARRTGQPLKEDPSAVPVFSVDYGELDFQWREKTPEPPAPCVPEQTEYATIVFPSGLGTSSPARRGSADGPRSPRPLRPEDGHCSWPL
T1 sequence (Q15116 25-288): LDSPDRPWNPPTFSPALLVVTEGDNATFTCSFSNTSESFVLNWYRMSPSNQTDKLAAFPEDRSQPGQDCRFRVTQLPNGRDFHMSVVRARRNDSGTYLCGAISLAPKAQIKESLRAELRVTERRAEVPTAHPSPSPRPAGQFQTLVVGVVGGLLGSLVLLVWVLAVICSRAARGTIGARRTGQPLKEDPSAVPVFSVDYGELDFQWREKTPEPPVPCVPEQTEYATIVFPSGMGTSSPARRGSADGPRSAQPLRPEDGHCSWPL
T2 sequence (B0LAJ3 entry or part of it limits assumed): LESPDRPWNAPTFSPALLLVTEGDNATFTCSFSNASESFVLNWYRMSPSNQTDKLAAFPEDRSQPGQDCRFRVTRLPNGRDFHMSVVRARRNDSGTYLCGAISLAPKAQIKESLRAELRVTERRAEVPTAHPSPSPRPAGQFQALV
T5 sequence (Q15116 25-170): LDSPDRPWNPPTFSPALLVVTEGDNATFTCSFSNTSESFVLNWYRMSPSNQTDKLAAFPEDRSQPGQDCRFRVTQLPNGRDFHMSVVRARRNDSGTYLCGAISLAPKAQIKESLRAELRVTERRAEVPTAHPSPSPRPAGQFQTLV

B1: APE12890 (3.7C6 anti-PD-1 antibody, CHO-S) (antibody, human IgG1, kappa, V domains shown)
VH: QVQLVQSGSELKKPGASVKVSCKASNYTFTDYSMHWVRQAPGQGLEWMGWINIETYYPTYADQFKGRFAFSLDTSVSTAYLQISSLKAEDTAVYYCARDYYGRFYYAMDYWGQGTTVTVSS
VL: EIVLTQSPATLSLSPGERATLSCTASSSVSSSYFHWYQQKPGQAPRLLIYSTSNLASGIPARFSGSGSGTDFTLTISRLEPEDFAVYYCHQYHRSPLTFGGGTKVEIKR
Take B1: in assay [1], the “median IC50 for IFN-γ inhibition, human whole blood tetanus toxoid recall assay” value came to 0.053 nM and the “median IC50 for IL-17A inhibition, human whole blood tetanus toxoid recall assay” value was 0.097 nM.

B2: APE12537 (3.7C6 anti-PD-1 antibody, CHO-S sorted stable pool) (antibody, human IgG1, kappa, V domains shown)
VH: QVQLVQSGSELKKPGASVKVSCKASNYTFTDYSMHWVRQAPGQGLEWMGWINIETYYPTYADQFKGRFAFSLDTSVSTAYLQISSLKAEDTAVYYCARDYYGRFYYAMDYWGQGTTVTVSS
VL: EIVLTQSPATLSLSPGERATLSCTASSSVSSSYFHWYQQKPGQAPRLLIYSTSNLASGIPARFSGSGSGTDFTLTISRLEPEDFAVYYCHQYHRSPLTFGGGTKVEIKR
notes: also called APE12537.01
One may read the Kd as the equilibrium constant for the complex coming apart. In the case of B2, the Kd was found to be 0.64 nM in assay [2] and 0.445 nM in assay [3].

B3: APE12095 (3.7C6 anti-PD-1 antibody, ExpiCHO-S transient) (antibody, V domains shown)
VH: QVQLVQSGSELKKPGASVKVSCKASNYTFTDYSMHWVRQAPGQGLEWMGWINIETYYPTYADQFKGRFAFSLDTSVSTAYLQISSLKAEDTAVYYCARDYYGRFYYAMDYWGQGTTVTVSS
VL: EIVLTQSPATLSLSPGERATLSCTASSSVSSSYFHWYQQKPGQAPRLLIYSTSNLASGIPARFSGSGSGTDFTLTISRLEPEDFAVYYCHQYHRSPLTFGGGTKVEIKR
notes: detected with anti-human kappa; Only variable regions are tied to APE12095; suffixes are lots; also called APE12095.03; APE12095.04
A word on the EC50: it is the midpoint of the concentration-response curve. Take B3: the values for the Kd in assay [4] and in assay [3] were 0.45 nM and 0.244 nM, respectively. Moreover, the concentration for a half-maximal effect (EC50) in assay [5] was 7.99 nM and 6.17 nM and 7.47 nM.

B4: 030-13263/030-13264 (CDR-grafted) (antibody, V domains shown)
VH: QVQLVQSGSELKKPGASVKVSCKASNYTFTDYSMHWVRQAPGQGLEWMGWINAETYYPTYADDFKGRFAFSLDTSVSTAYLQISSLKAEDTAVYYCARDYYGRFYYAMDYWGQGTTVTVSS
VL: EIVLTQSPATLSLSPGERATLSCTASSSVSSSYFHWYQQKPGQAPRLLIYSTSNLASGIPARFSGSGSGTDFTLTISRLEPEDFAVYYCHQYHRSPLTFGGGTKVEIKR
notes: CDR-grafted forerunner of APE12537; APE12537 differs from it by A52aI and D62Q (Kabat) in the heavy chain
B4 came in with an equilibrium dissociation constant (Kd) in assay [2] of 1.02 nM.

B5: APE12043 (437M5-112 anti-PD-1 antibody, ExpiCHO-S transient) (antibody, V domains shown)
VH: QVQLVQSGAEVKKPGASVKVSCKASGYTFTSYSMHWVRQAPGQGLEWMGYINPSSGFTNYIQKFRDRVTMTADKSSSTAYMELSRLRSDDTAVYYCARDYYGRYYYVMDYWGQGTTVTVSS
VL: DIQMTQSPSSLSASVGDRVTITCTASSSVSSSFLHWYQQKPGKAPKLLIYSTSDLASGVPSRFSGSGSGTDFTLTISSLQPEDFATYYCHQYHRSPLTFGGGTKVEIKR
notes: detected with anti-human kappa; Only variable regions are tied to APE12043; the suffixes .02 to .05 are lots; also called APE12043.02; APE12043.03
For B5, the figures for the Kd in assay [4], in assay [7] and in assay [3] were 0.21 nM, 0.031 nM and 0.09 nM, respectively. Besides, the EC50 was 2.99 nM and 3.06 nM in assay [6]; 3.69 nM and 2.69 nM and 2.59 nM in assay [5].

B6: APE12538 (437M5-112 anti-PD-1 antibody, CHO-S sorted stable pool) (antibody, human IgG1, kappa, V domains shown)
VH: QVQLVQSGAEVKKPGASVKVSCKASGYTFTSYSMHWVRQAPGQGLEWMGYINPSSGFTNYIQKFRDRVTMTADKSSSTAYMELSRLRSDDTAVYYCARDYYGRYYYVMDYWGQGTTVTVSS
VL: DIQMTQSPSSLSASVGDRVTITCTASSSVSSSFLHWYQQKPGKAPKLLIYSTSDLASGVPSRFSGSGSGTDFTLTISSLQPEDFATYYCHQYHRSPLTFGGGTKVEIKR
notes: also called APE12538.01
Consider B6, for which binding in assay [3] was put at a Kd of 0.217 nM.
